The values below come from patent US20230265198A1 (TWIST BIOSCIENCE, published 2023).

Residue numbers refer to the chain shown, from its start.

Sequences and labels used below:
B1: NRP1-214 (antibody, IgG2, V domains shown)
VH: EVQLLESGGGLVQPGGSLRLSCAASGFTFTTYGMSWVRQAPGKGLEWVSAISGSGGTTYYADSVKGRFTISRDNSKNTLYLQMNSLRAEDTAVYYCARVGPGRSIAARQGFKRRNNWFDPWGQGTLVTVSS
VL: DIQMTQSPSSLSASVGDRVTITCRASQSVSTSLNWYQQKPGKAPKLLIYGASRLQTGVPSRFSGSGSGTDFTLTISSLQPEDFATYYCQQTYSSPRTFGGGTKVEIK
B2: NRP1-217 (antibody, IgG2, V domains shown)
VH: EVQLLESGGGLVQPGGSLRLSCAASGFTFGRYAMSWVRQAPGKGLEWVSSISGSGGSTYYADSVKGRFTISRDNSKNTLYLQMNSLRAEDTAVYYCARQRIKPNTPRESFFRRAYSYYGMDVWGQGTLVTVSS
VL: B1 VL with A25T, S28R, V29I, R53N, T56S, V58A, T91S, S93F, S94T, R96I
B3: NRP1-223 (antibody, IgG2, V domains shown)
VH: EVQLLESGGGLVQPGGSLRLSCAASGFTFKKYAMSWVRQAPGKGLEWVSTISGSGRSTYYADSVKGRFTISRDNSKNTLYLQMNSLRAEDTAVYYCARDLARGTMPRGVIIPHNWFDPWGQGTLVTVSS
VL: B1 VL with S30R, T31N, S32Y, Q55H, T56S, T91S, S94G, R96Y, T97S
B4: NRP1-220 (antibody, IgG2, V domains shown)
VH: EVQLLESGGGLVQPGGSLRLSCAASGFTFRTYDMGWVRQAPGKGLEWVSAVSGSGGTTYYADSVKGRFTISRDNSKNTLYLQMNSLRAEDTAVYYCARETRRVLRRQWRRSYHSYGLDVWGQGTLVTVSS
VL: B1 VL with V29I, T31N, S32K, G50A, R53T, T56R, T91S, S93K, S94T, R96L
B5: NRP1-219 (antibody, IgG2, V domains shown)
VH: EVQLLESGGGLVQPGGSLRLSCAASGFPFSSYALSWVRQAPGKGLEWVSAITGSGGNTFYADSVKGRFTISRDNSKNTLYLQMNSLRAEDTAVYYCARGGQSGRPRVRGARRLDYYGMDVWGQGTLVTVSS
VL: B1 VL with V29I, T31K, R53K, T56R, T91G, S94A, R96L
B6: NRP1-224 (antibody, IgG2, V domains shown)
VH: B1 VH with T30G, T31S, G33A, S35A, A50G, S52T, G53A, T57S
VL: DIQMTQSPSSLSASVGDRVTITCRASQNIGRYLNWYQQKPGKAPKLLIYAASTLHSGVPSRFSGSGSGTDFTLTISSLQPEDFATYYCQQSHSNPFTFGGGTKVEIK
B7: NRP1-280 (antibody, IgG2, V domains shown)
VH: B1 VH
VL: B6 VL with N28T, G30S, R31N, L33V, T53S, S56A, S91G, H92Y, N94T, F96L
B8: NRP1-262 (antibody, IgG2, V domains shown)
VH: B3 VH
VL: B6 VL with A25T, N28S, G30N, R31T, T53G, S91A, H92Y, S93G, N94T
B9: NRP1-16 (VHH)
VHH: EVQLVESGGGLVQPGGSLRLSCAASGRTFSRYVMGWFRQAPGKEREWVATSGTGYGATYADSVKGRFTISADNSKNTAYLQMNSLKPEDTAVYYCARGWLRTGWSIWGQGTLVTVSS
B10: NRP1-216 (antibody, IgG2, V domains shown)
VH: EVQLLESGGGLVQPGGSLRLSCAASGFSFRNYAMSWVRQAPGKGLEWVSTVSGSGSSTYYADSVKGRFTISRDNSKNTLYLQMNSLRAEDTAVYYCARGRRGMPAPDTVRKMAKSHLYFDSWGQGTLVTVSS
VL: DIQMTQSPSSLSASVGDRVTITCRASQSISNYLSWYQQKPGKAPKLLIYAASSLSGGVPSRFSGSGSGTDFTLTISSLQPEDFATYYCQQTYTTPYTFGGGTKVEIK

For this assay, the target named is T1, neuropilin-1 (NRP1) on HEK293 cells overexpressing NRP1 (UniProt O14786 22-923, limits assumed).
T1 construct: whole, on cells
As to the kind of experiment: flow cytometry, HEK293-NRP1 vs HEK293.
For the molecule B1, the “100 nM FACS (MFI Ratio)” value worked out at 1.
As for B2, the “100 nM FACS (MFI Ratio)” value is 2.8.
In the case of B3, the “100 nM FACS (MFI Ratio)” value came out at 12.8.
The value for B4 was 2.3; that for B5 was 1.2; that for B6 was 1.
As for B7, the “100 nM FACS (MFI Ratio)” value is 0.6.
For B8, the “100 nM FACS (MFI Ratio)” value came out at 6.2.
As to B9, the “100 nM FACS (MFI Ratio)” value was found to be 15.9.
The value for B10 was 3.6.
